# B1: BglB (Paenibacillus polymyxa) (protein)
# chain: NTFIFPATFMWGTSTSSYQIEGGTDEGGRTPSIWDTFCQIPGKVIGGDCGDVACDHFHHFKEDVQLMKQLGFLHYRFSVAWPRIMPAAGIINEEGLLFYEHLLDEIELAGLIPMLTLYHWDLPQWIEDEGGWTQRETIQHFKTYASVIMDRFGERINWWNTINEPYCASILGYGTGEHAPGHENWREAFTAAHHILMCHGIASNLHKEKGLTGKIGITLNMEHVDAASERPEDVAAAIRRDGFINRWFAEPLFNGKYPEDMVEWYGTYLNGLDFVQPGDMELIQQPGDFLGINYYTRSIIRSTNDASLLQVEQVHMEEPVTDMGWEIHPESFYKLLTRIEKDFSKGLPILITENGAAMRDELVNGQIEDTGRHGYIEEHLKACHRFIEEGGQLKGYFVWSFLDNFEWAWGYSKRFGIVHINYETQERTPKQSALWFKQMMAKNGF
# notes: amplified from yak rumen metagenomic DNA; usp45 signal peptide, pMG36e, secreted by L. lactis NZ9000; about 55 kDa; gene 1361 bp; supernatant / TCA-acetone precipitate
# B2: BglA (Paenibacillus polymyxa) (protein)
# chain: MTIFQFPQDFMWGTATAAYQIEGAYQEDGRGLSIWDTFAHTPGKVFNGDNGNVACDSYHRYEEDIRLMKELGIRTYRFSVSWPRIFPNGDGEVNQEGLDYYHRVVDLLNDNGIEPFCTLYHWDLPQALQDAGGWGNRRTIQAFVQFAETMFREFHGKIQHWLTFNEPWCIAFLSNMLGVHAPGLTNLQTAIDVGHHLLVAHGLSVRRFRELGTSGQIGIAPNVSWAVPYSTSEEDKAACARTISLHSDWFLQPIYQGSYPQFLVDWFAEQGATVPIQDGDMDIIGEPIDMIGINYYSMSVNRFNPEAGFLQSEEINMGLPVTDIGWPVESRGLYEVLHYLQKYGNIDIYITENGACINDEVVNGKVQDDRRISYMQQHLVQVHRTIHDGLHVKGYMAWSLLDNFEWAEGYNMRFGMIHVDFRTQVRTPKESYYWYRNVVSNNWLETRR
# notes: as for B1
# Assays:
# [1] = substrate: OCc1ccccc1O[C@@H]1O[C@H](CO)[C@@H](O)[C@H](O)[C@H]1O; experiment: DNS reducing sugar assay, Michaelis-Menten / Lineweaver-Burk fit; type: biochemical, Paenibacillus polymyxa; settings: 50 °C, pH 7.0, bacterial supernatant
# From the text: DNS reducing sugar assay, Michaelis-Menten / Lineweaver-Burk fit on BglB
# [2] = substrate: OCc1ccccc1O[C@@H]1O[C@H](CO)[C@@H](O)[C@H](O)[C@H]1O; experiment: as above; type: biochemical, Paenibacillus polymyxa; settings: 50 °C, pH 7.0, bacterial supernatant; remark: listed apart in the source
# From the text: DNS reducing sugar assay, Michaelis-Menten / Lineweaver-Burk fit on BglA
protein,measurement,setting,value
B1,Km,[1],43.99 µM
same,Vmax,[1],1250 µmol/min/mg
same,kcat,[1],349 s⁻¹
same,kcat/Km,[1],7.93e+06 M⁻¹ s⁻¹
B2,Km,[2],38.61 µM
same,Vmax,[2],1340 µmol/min/mg
same,kcat,[2],435 s⁻¹
same,kcat/Km,[2],1.13e+07 M⁻¹ s⁻¹
